Literature values in publication PMC11209772.
Values joined by “and” are separate entries in the source; they are usually repeats but may differ in a detail not shown here. Equal entries are not always repeated. Where two headings read alike, the source gives them in different places. Blank lines part the entries; values can stand above or below the substance they belong to.

Tests used:
[1] = target: SSB C-terminal peptide C-terminal 15 residues (Escherichia coli) (UniProt P0AGE0); assay: SPR
[2] = target: SSB-Ct peptide SSB-Ct (Escherichia coli) (UniProt P0AGE0); assay: FP
[3] = target: SSB (Escherichia coli) (UniProt P0AGE0); assay: SPR
[4] = target: SSB (Escherichia coli) (UniProt P0AGE0); assay: FP
[5] = target: SSB-Ct peptide (Escherichia coli) (UniProt P0AGE0); assay: FP
[6] = target: SSB-Ct peptide SSB-Ct (Escherichia coli) (UniProt P0AGE0); assay: ITC
[7] = target: SSB (Escherichia coli) (UniProt P0AGE0)
[8] = target: SSB (Escherichia coli) (UniProt P0AGE0); assay: ITC
[9] = target: SSB-Ct peptide SSB-Ct (Escherichia coli) (UniProt P0AGE0)

Kd [1]: 2400 nM
Substance: PriA (from UniProt P17888)

Kd [2]: 60 nM
Substance: RecO (from UniProt P0A7H3)

Kd [3]: 360 nM
Substance: RarA (from UniProt P0AAZ4)

Kd [4]: 2000 nM
Substance: DNA polymerase IV (from UniProt Q47155)

Kd [3]: 2700 nM
Substance: Pol III χψ (from UniProt P28905)

Kd [5]: 136 nM
Substance: ExoI (from UniProt P04995)

Kd [6]: 670 nM and 3700 nM
Substance: PriC (from UniProt P23862)

Kd [7]: 330 nM
Substance: DNA polymerase III subunit chi (from UniProt P28905)

Kd [3]: 170 nM
Substance: UDG (from UniProt P12295)

Kd [8]: 2000 nM
Substance: RNase HI (from UniProt P0A7Y4)

Kd [9]: 5400 nM | Kd [5]: 5400 nM
Substance: RadD (from UniProt P33919)

Kd [8]: 6000 nM
Substance: RecQ (from UniProt P15043)
